Laboratory results published in patent US20160039904A1, “STABILIZED SINGLE HUMAN CD4 DOMAINS AND FUSION PROTEINS” (priority 2013, published 2016).

Assays:
Experiment in all cases: cell-based or functional assay
[1] = target: HIV-1 Env of isolate CNE23 (HIV-1)
[2] = target: HIV-1 Env of isolate CH117 (HIV-1)
[3] = target: HIV-1 Env of isolate CNE40 (HIV-1)
[4] = target: HIV-1 Env of isolate CH119 (HIV-1)
[5] = target: HIV-1 Env of isolate CNE66 (HIV-1)
[6] = target: HIV-1 Env of isolate CNE53 (HIV-1)
[7] = target: HIV-1 Env of isolate CNE3 (HIV-1)
[8] = target: HIV-1 Env of isolate CNE65 (HIV-1)
[9] = target: HIV-1 Env of isolate CNE64 (HIV-1)
[10] = target: HIV-1 Env of isolate CH64 (HIV-1)
[11] = target: HIV-1 Env of isolate CNE1 (HIV-1)
[12] = target: HIV-1 Env of isolate CNE55 (HIV-1)
[13] = target: HIV-1 Env of isolate CNE4 (HIV-1)
[14] = target: HIV-1 Env of isolate CNE20 (HIV-1)
[15] = target: HIV-1 Env of isolate CH91 (HIV-1)
[16] = target: HIV-1 Env of isolate CNE47 (HIV-1)
[17] = target: HIV-1 Env of isolate CH120 (HIV-1)
[18] = target: HIV-1 Env of isolate AE20 (HIV-1)
[19] = target: HIV-1 Env of isolate CNE5 (HIV-1)
[20] = target: HIV-1 Env of isolate GX2010.36 (HIV-1)
[21] = target: HIV-1 Env of isolate CH114 (HIV-1)
[22] = target: HIV-1 Env of isolate CNE16 (HIV-1)
[23] = target: HIV-1 Env of isolate CH110 (HIV-1)
[24] = target: HIV-1 Env of isolate CNE59 (HIV-1)
[25] = target: HIV-1 Env of isolate CH70 (HIV-1)
[26] = target: HIV-1 Env of isolate CNE68 (HIV-1)
[27] = target: HIV-1 Env of isolate AE03 (HIV-1)
[28] = target: HIV-1 Env of isolate CNE58 (HIV-1)
[29] = target: HIV-1 Env of isolate CNE49 (HIV-1)
[30] = target: HIV-1 Env of isolate CNE57 (HIV-1)
[31] = target: HIV-1 Env of isolate CNE17 (HIV-1)
[32] = target: HIV-1 Env of isolate CNE30 (HIV-1)
[33] = target: HIV-1 Env of isolate CNE9 (HIV-1)
[34] = target: HIV-1 Env of isolate CNE46 (HIV-1)
[35] = target: HIV-1 Env of isolate CNE6 (HIV-1)
[36] = target: HIV-1 Env of isolate CNE7 (HIV-1)
[37] = target: HIV-1 Env of isolate CNE15 (HIV-1)
[38] = target: HIV-1 Env of isolate CNE14 (HIV-1)
[39] = target: HIV-1 Env of isolate CNE107 (HIV-1)
[40] = target: HIV-1 Env of isolate CNE11 (HIV-1)
[41] = target: HIV-1 Env of isolate YN192.31 (HIV-1)
[42] = target: HIV-1 Env of isolate CM240.EC1 (HIV-1)
[43] = target: HIV-1 Env of isolate N1 1046.e3 PV (HIV-1)
[44] = target: HIV-1 Env of isolate CAM0015BBY.EC3 (HIV-1)
[45] = target: HIV-1 Env of isolate GS-015.EC12 (HIV-1)
[46] = target: HIV-1 Env of isolate 57128.VRC18 (HIV-1)
[47] = target: HIV-1 Env of isolate 55815.EC3 (HIV-1)
[48] = target: HIV-1 Env of isolate KNH1144.EC1 (HIV-1)
[49] = target: HIV-1 Env of isolate Bal.EC1 TC (HIV-1)
[50] = target: HIV-1 Env of isolate KNH1088.EC5 (HIV-1)
[51] = target: HIV-1 Env of isolate PBL286.VRC36aPV (HIV-1)
[52] = target: HIV-1 Env of isolate BZ167.ec9 (HIV-1)
[53] = target: HIV-1 Env of isolate A07412VRC12A (HIV-1)

Substance: T20 (enfuvirtide) (peptide)
- neutralization IC50 [1]: 15 nM
- neutralization IC90 [1]: 228 nM
- neutralization IC50 [2]: 2.3 nM
- neutralization IC90 [2]: 34 nM
- neutralization IC50 [3]: 4.9 nM
- neutralization IC90 [3]: 108 nM
- neutralization IC50 [4]: 2 nM
- neutralization IC90 [4]: 25 nM
- neutralization IC50 [5]: 129 nM
- neutralization IC90 [5]: 729 nM
- neutralization IC50 [6]: 51 nM
- neutralization IC90 [6]: 721 nM
- neutralization IC50 [7]: 5.6 nM
- neutralization IC90 [7]: 38 nM
- neutralization IC50 [8]: 5.9 nM
- neutralization IC90 [8]: 78 nM
- neutralization IC50 [9]: 1.9 nM
- neutralization IC90 [9]: 16 nM
- neutralization IC50 [10]: 3.1 nM
- neutralization IC90 [10]: 25 nM
- neutralization IC50 [11]: 1.6 nM
- neutralization IC90 [11]: 17 nM
- neutralization IC50 [12]: 26 nM
- neutralization IC90 [12]: 549 nM
- neutralization IC50 [13]: 1.7 nM
- neutralization IC90 [13]: 14 nM
- neutralization IC50 [14]: 5.5 nM
- neutralization IC90 [14]: 41 nM
- neutralization IC50 [15]: 8.6 nM
- neutralization IC90 [15]: 310 nM
- neutralization IC50 [16]: 4.9 nM
- neutralization IC90 [16]: 42 nM
- neutralization IC50 [17]: 11 nM
- neutralization IC90 [17]: 443 nM
- neutralization IC50 [18]: 212 nM
- neutralization IC90 [18]: 572 nM
- neutralization IC50 [19]: 2.1 nM
- neutralization IC90 [19]: 19 nM
- neutralization IC50 [20]: 255 nM
- neutralization IC90 [20]: > 750 nM
- neutralization IC50 [21]: 102 nM
- neutralization IC90 [21]: > 750 nM
- neutralization IC50 [22]: 14 nM
- neutralization IC90 [22]: 169 nM
- neutralization IC50 [23]: 4.3 nM
- neutralization IC90 [23]: 262 nM
- neutralization IC50 [24]: 1.4 nM
- neutralization IC90 [24]: 17 nM
- neutralization IC50 [25]: 65 nM
- neutralization IC90 [25]: > 750 nM
- neutralization IC50 [26]: 32 nM
- neutralization IC90 [26]: 321 nM
- neutralization IC50 [27]: 304 nM
- neutralization IC90 [27]: 510 nM
- neutralization IC50 [28]: 54 nM
- neutralization IC90 [28]: 745 nM
- neutralization IC50 [29]: 9.1 nM
- neutralization IC90 [29]: 236 nM
- neutralization IC50 [30]: 2.5 nM
- neutralization IC90 [30]: 24 nM
- neutralization IC50 [31]: 42 nM
- neutralization IC90 [31]: 676 nM
- neutralization IC50 [32]: 26 nM
- neutralization IC90 [32]: 285 nM
- neutralization IC50 [33]: 1.7 nM
- neutralization IC90 [33]: 14 nM
- neutralization IC50 [34]: 26 nM
- neutralization IC90 [34]: 743 nM
- neutralization IC50 [35]: 1.4 nM
- neutralization IC90 [35]: 15 nM
- neutralization IC50 [36]: 4.3 nM
- neutralization IC90 [36]: 58 nM
- neutralization IC50 [37]: 14 nM
- neutralization IC90 [37]: 157 nM
- neutralization IC50 [38]: 9.7 nM
- neutralization IC90 [38]: 305 nM
- neutralization IC50 [39]: 3.8 nM
- neutralization IC90 [39]: 45 nM
- neutralization IC50 [40]: 3.5 nM
- neutralization IC90 [40]: 36 nM
- neutralization IC50 [41]: 42 nM
- neutralization IC90 [41]: 336 nM

Substance: b12 (antibody)
- IC50, neutralization in TZM-bl cell-based assay [42]: 82 nM
- IC90, neutralization in TZM-bl cell-based assay [42]: > 167 nM
- IC50, neutralization in TZM-bl cell-based assay [43]: 138 nM
- IC90, neutralization in TZM-bl cell-based assay [43]: > 167 nM
- IC50, neutralization in TZM-bl cell-based assay [44]: 81 nM
- IC90, neutralization in TZM-bl cell-based assay [44]: > 167 nM
- IC50, neutralization in TZM-bl cell-based assay [45]: 0.085 nM
- IC90, neutralization in TZM-bl cell-based assay [45]: 1.6 nM
- IC90, neutralization in TZM-bl cell-based assay [46]: 30 nM
- IC50, neutralization in TZM-bl cell-based assay [47]: > 167 nM
- IC90, neutralization in TZM-bl cell-based assay [47]: > 167 nM
- IC50, neutralization in TZM-bl cell-based assay [48]: > 167 nM
- IC90, neutralization in TZM-bl cell-based assay [48]: > 167 nM
- IC90, neutralization in TZM-bl cell-based assay [49]: 3.6 nM
- IC50, neutralization in TZM-bl cell-based assay [50]: 117 nM
- IC90, neutralization in TZM-bl cell-based assay [50]: > 167 nM
- IC50, neutralization in TZM-bl cell-based assay [51]: 4 nM
- IC90, neutralization in TZM-bl cell-based assay [51]: 19 nM
- IC90, neutralization in TZM-bl cell-based assay [52]: > 167 nM
- IC50, neutralization in TZM-bl cell-based assay [53]: 12 nM
- IC90, neutralization in TZM-bl cell-based assay [53]: > 167 nM
